# Laboratory results from patent publication US20250340659A1 (PETMEDIX, published 2025).
# T1: canine OX40L, full length membrane form, expressed on HEK293 cells (canine)
# T1 chain: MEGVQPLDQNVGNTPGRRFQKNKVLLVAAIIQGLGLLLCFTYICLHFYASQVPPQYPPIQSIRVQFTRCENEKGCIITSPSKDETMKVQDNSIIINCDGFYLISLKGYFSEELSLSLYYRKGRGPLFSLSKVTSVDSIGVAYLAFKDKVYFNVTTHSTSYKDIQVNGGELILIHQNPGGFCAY
# What was measured:
# [1] = target: T1, canine OX40L, full length membrane …; test: cell-based or functional assay
# [2] = target: T1, canine OX40L, full length membrane …; test: flow cytometry, OX40L HEK minus WT HEK
# Description: (§1) CHO supernatants diluted in FACS buffer (PBS containing 3% FBS) at 1, 5 or 10 μg/ml were used to screen for their binding capacity to canine OX40L using a cell-based assay. In brief, HEK293 or MEF cells (or any other commonly used cell lines) expressing canine OX40L at the cell surface are incubated with 100 μll of FACS buffer containing the candidate antibody for 30′ on ice. Cells are washed with 150 μl FACS buffer followed by centrifugation at 300 g for 3 min. The cell pellet is resuspended in FACS buffer containing a 1:1000 dilution of a fluorescently labelled secondary antibody recognising the canine Fc region of the test antibody for 30 min in the dark, followed by washing with 150 μl FACS buffer. Cells are resuspended in FACS buffer and flow cytometry performed using either a […] cytometer, followed by data analysis using FlowJo (FIG. 6 and Table 4).
# [3] = target: T1, canine OX40L, full length membrane …; test: flow cytometry
# Description: as §1
Binder,% Signal Inhibition Average [1] [%],% Signal Inhibition Rep1 [1] [%],% Signal Inhibition Rep2 [1] [%],% Signal Inhibition Rep3 [1] [%],GEO mean difference [2],GEO mean OX40L expressing HEK [3]
"PMX084 (antibody, V domains shown, also called PMX84) VH: EVQLVESGGDLVKPEGSLRLSCVVSGFTFSNYDMSWVRQAPGKGLQWVAFISNDGRITGYTDAVEGRFTISRDNAKNTLYLQMNSLRTEDTAVYYCAKETSRWGFDYWGQGTLVTVSS VL: SYVLTQLPSVSVTLRQTARITCGGDSIGSKNVYWHQQKLGQAPVLIIYDDSSRPSGIPERFSGANSGNTATLTISGALAEDEADYYCQVWDSSTSVFGGGTHLTVL",60.7,47.2,66.9,68,610000,622000
"PMX062 (antibody, also called PMX62) heavy: EVQLVESGGDLVKPEGSLRLSCVVSGFTFSSYDMSWVRQAPGKGLQWVAYISFDGRSTSYTDVVKGRFTISRDNAKTTLYLQMNTLRIEDTAVYYCAKLSSSGWSMDYWGHGTSLFVSSASTTAPSVFPLAPSCGSTSGSTVALACLVSGYFPEPVTVSWNSGSLTSGVHTFPSVLQSSGLYSLSSMVTVPSSRWPSETFTCNVAHPASKTKVDKPVPKRENGRVPRPPDCPKCPAPESLGGPSVFIFPPKPKDTLLIARTPEVTCVVVDLGREDPEVQISWFVDGKQMQTAKTQPREEQFNGTYRVVSVLPIGHQDWLKGKQFTCKVNHIGLPSPIERTISKARGQAHQPSVYVLPPSREELSKNTVSLTCLIKDFFPPDIDVEWQSNGQQEPESKYRTTPPQLDEDGSYFLYSKLSVDKSRWQRGDTFICAVMHEALHNHYTQKSLSHSPGK VL: SYVLTQLPSKNVTLKQPAHITCGGDNIGSKSVHWYQQKLGQAPVLIIYYDSSRPTGIPERFSGANSGNTATLTISGALAEDEADYYCQVWDSSASVFGGGTHLTVL",15,4.15,22.1,18.7,2.78e+06,2.81e+06
"PMX089 (antibody, V domains shown) VH: EVQLVESGGDLVKPGGSLRLSCVASGFTFNNFHMSWVRQAPGKGLQWVAFINSDGGNRNYADVVKGRVTISRDYAKNTLYLQINSLRAEDTAVYYCAGGSIWTHFDYWGQGTLVTVSS VL: SYVLTQLPSMSVTLRQTARITCEGDIIASKRIYWYQQKLGQVPVLLIYADSSRPSGIPERFSGASSGNTATLTISGALAEDEADYYCQVWDNNANSVFGGGTHLTVL",47.4,43.3,49.7,49.1,–,–
"PMX092 (antibody, V domains shown) VH: EVQLVESGGDLVKPGGSLRLSCVASGFTFNNLHMSWVRQAPGKGLQWVAFINSDGRNRNYADAVKGRVTISRDYAKNTLYLQINSLRAEDTAVYYCTGGSIWTHFDYWGQGTLVTVSS VL: SYVLTQLPSMSVTLRQTARITCEGDIIASKRVYWYQQKLGQVPVLFIYADNSRPSGIPERFSGASSGNTATLTISGALAEDEADYYCQVWDSNANSVFGGGTHLTVL",34.7,33.3,39.2,31.6,–,–
"PMX093 (antibody, V domains shown) VH: EVQLVESGGDLVKPGGSLRLSCVASGFTFSSYHMSWVRQAPGKGLQWVAFINSGGGGTNYADAVKGRFTISRDYAKNTLYLQMNSLRAEDTAVYYCVGGSIWTHFDYWGQGTLVTVSS VL: SYVLTQLPSMSVTLRQTARITCEGDIIASKRVYWYQQKLGQVPVLLIYGDSSRPSGIPERFSGANSGNTATLTISGALAEDEADYYCQVWDSGTNSVFGGGTHLTVL",5.46,0,-0.585,17,–,–
"PMX082 (antibody, V domains shown, also called PMX82) VH: EVQLVESGGDLVKPGGSLRLSCVASGFTFSSHHMTWVRQAPGKGLQWVAYIVSGGTNTNYADAVKGRFTISRDNAKNTLYLQMNSLRAEDTAVYYCASDLVLAVGAPFYWGQGTLVTVSS VL: SYELTQPPSVNVTLRETAHITCGGDSIGRKYVQWIQQNPGQAPVVIIYKDINRPTGIPERFSGANSGNTATLTISGALAEDEADYYCQVGDSGTKAVFGEGTQLTVL",72.3,72.8,71.9,72.1,531000,544000
"PMX083 (antibody, V domains shown, also called PMX83) VH: EVQLVESGGDLVKPGGSLRLSCVASGFTFRTYHMSWVRQAPGKGLQWVAYITRDGISTTYTDAVKGRFTISRDNAKNTLFLQMNSLRADDTAVYYCASDLVLVLGAPFYWGQGTLVTVSS VL: SYELTQPPSVNVTLGETAHITCGGDSIGRKYVQWIQQNPGQAPVVIIYKDSNRPTGIPERFSGANSGNTATLTISGALAEDEADYYCQVGDSGTKAVFGEGTQLTVL",71.1,66,65.8,81.6,690000,701000

# Second part, the binder after the results:
% Signal Inhibition Average [1] [%],% Signal Inhibition Rep1 [1] [%],% Signal Inhibition Rep2 [1] [%],% Signal Inhibition Rep3 [1] [%],GEO mean difference [2],GEO mean OX40L expressing HEK [3],Binder
45.4,38.6,55,42.7,–,–,"PMX094 (antibody, V domains shown) VH: DIHLVESGGDLVRPGGSLRLSCVASGFTFSNLHMNWVRQAPGKGLQWVAFINSGGSGTTYADVVRGRFTISRDYAKNTLYLQMNSLRADDTAVYYCASGSIWTHFDYWGQGTLVTVSS VL: SFVLTQLPSVSVTLRQTARITCGGDSIGSKSVYWYQQKLGQAPVLIIYRDSNRPTGIPERISGASSGNTATLTISGALAEDEADYYCQVWDSSNKAMFGGGTHLTVL"
47.6,57.3,26.3,59.1,–,–,"PMX103 (antibody, V domains shown) VH: EVQLVESGGDLVRPGGSLRLSCVASGFTFSNLHMNWVRQAPGKGLQWVAFINSGGSGTTYADVVRGRFTISRDYAKNTLNLQMTSLRAEDTAVYYCATGSIWTHFDYWGQGTLVTVSS VL: SFVLTQLPSVSVTLRQTARITCGGDSIGSKSVYWYQQKLGQAPVLIIYRDSNRPTGIPERISGASSGNTATLTISGALAEDEADYYCQVWDSSNKAMFGGGTHLTVL"
52.4,62.6,50.3,44.4,–,–,"PMX101 (antibody, V domains shown) VH: EVQLVESGGDLVRPGGSLRLSCVASGFTFSNYHMSWVRQAPGKGLQWVAFINSGGSSTSYADAVRGRFTISRDYAKNTLYLQMNSLRAEDTAVYYCASGSIWTHFDYWGQGTLVTVSS VL: SFVLTQLPSVSVTLRQTARITCGGDIIGSKSVYWFQQKLGQAPILIIYRDDNRPTGIPERFSGASSGNTATLIISGALAEDEAHYYCQVWDSSSKAMFGGGTHLTVL"
24.8,25.1,32.7,16.4,–,–,"PMX099 (antibody, V domains shown) VH: EVQLVESGGDLVRPGGSLRLSCVASGFTFSSYHMNWVRQAPGKGLQWVAFINSGGSSTTYADVVRGRFTISRDYAKNTLYLQMNSLRAEDTAVYYCASGSIWTHFDYWGQGTLVTVSS VL: SFVLTQLPSVSVTLRQTARITCGGDSIGTKSVYWYQQKLGQAPVLIIYRDSNRPTGIPERFSGASSGNTATLTISGALAEDEADYYCQVWDSSNKAMFGGGTHLTVL"
32.4,49.1,28.1,19.9,–,–,"PMX100 (antibody, V domains shown) VH: EVQLVESGGDLVRPGGSLRLSCVASGFTFSSYHMSWVRQAPGKGLQWVAFINSGGSSTTYADVVRGRFTISRDYAKNTLYLQMNSLRAEDTAVYYCASGSIWTHFDYWGQGTLVTVSS VL: SFVLTQLPSVSVTLRQTARITCGGDSIGSKSVYWYQQRLGQAPVLIIYRDSNRPTGIPERFSGASSGNTATLTISGALAEDEADYYCQVWDNSNKAMFGGGTHLTVL"
50.3,40.9,52.6,57.3,–,–,"PMX095 (antibody, V domains shown) VH: AVQLVESGGDLVRPGGSLRLSCVASGFTFSSYHMNWVRQAPGKGLQWVAFINSGGSSTTYADVVRGRFTISRDYAKNTLFLQMNSLRAEDTAVYYCAIGSIWTHFDYWGQGTLVTVSS VL: SFVLTQLPSVSVTLRQTARITCGGDIIGSKNVYWYQQRLGQAPVLILYRDTNRPTGIPERFSGASSGNTATLTISGALAEDEADYYCQVWDNSNKAMFGGGTHLTVL"
50.1,36.8,59.1,54.4,–,–,"PMX096 (antibody, V domains shown) VH: EVQLVESGGDLVKPGGSLRLSCVASGFTFNTYHMNWVRQAPGKGLHWVAFINSGGSDTSYADTVQGRFTISRDYAKNTLYLQMNSLRAEDTAVYYCASGYIWTHFDYWGQGTLVTVSS VL: SYVLTQLPSVSVTLRQTAHITCGGDIIGSKSVYWYQQKLGQAPVMIIYRDNNRPTGIPERFSGASSGNTATLTISGSLAEDEADYYCQVWDSRTQALFGGGTHLTVL"
